What was measured:
[1] = molecular target: the molecule itself; experiment: far-Western, overlay or dot blot; 2 μg of each protein spotted on nitrocellulose, overlaid with 100 μg/ml aldolase with 0.1 mM GSNO, 5 mM GSSG, 1 mM diamide + 1 mM GSH or 0.5 mM H2O2 + 0.5 mM GSH, 1 h room temperature; glutaraldehyde cross-linking; anti-aldolase antibody
[2] = molecular target: T1, recombinant GAPDH GapC1 (At3g04120) (A. thaliana, UniProt P25858 1-338); experiment: far-Western, overlay or dot blot; GapC and BSA spotted on nitrocellulose, overlaid with VDAC3 in liposomes, without DTT (oxidized GapC); anti-VDAC1 serum, ECL; conditions: both partners purified
T1 construct: cytosolic NAD-dependent glyceraldehyde-3-phosphate dehydrogenase GapC1, A. thaliana, At3g04120; Redox reagents (diamide + GSH, GSSG, GSNO, H2O2 + GSH, DTT) were added to the mixtures; the redox state is told by the assay; source: recombinant, purified
T1 sequence (P25858 whole entry): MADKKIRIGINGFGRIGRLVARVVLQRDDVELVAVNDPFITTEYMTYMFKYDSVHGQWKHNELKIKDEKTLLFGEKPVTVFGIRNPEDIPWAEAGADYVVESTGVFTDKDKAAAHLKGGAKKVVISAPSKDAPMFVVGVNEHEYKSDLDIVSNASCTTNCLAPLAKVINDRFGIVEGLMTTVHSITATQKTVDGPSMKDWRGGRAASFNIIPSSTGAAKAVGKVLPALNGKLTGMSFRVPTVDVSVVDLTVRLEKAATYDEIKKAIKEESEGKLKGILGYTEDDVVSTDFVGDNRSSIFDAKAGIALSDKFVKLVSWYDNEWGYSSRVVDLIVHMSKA

Row | binding result [2] | Binder | binding result [1]
1 | – | recombinant cytosolic fructose 1,6-bisphosphate aldolase (FBA6, At2g36460) (enzyme, A. thaliana, UniProt Q9SJQ9 1-358, looked up, cytosolic fructose 1,6-bisphosphate aldolase FBA6, A. thaliana, At2g36460; Redox reagents were added to the mixtures; no modified residues are named; the redox state is told by the assay; source: recombinant, purified) MSSFTSKFADELIANAAYIGTPGKGILAADESTGTIGKRLASINVENVESNRRALRELLFTTPGALPCLSGVILFEETLYQKSSDGTPFVDMLKSAGVLPGIKVDKGTVELAGTNGETTTQGLDGLGDRCKKYYEAGARFAKWRAVLKIGVNEPSQLAIHENAYGLARYAVICQENGLVPIVEPEILVDGSHDIQKCAAVTERVLAACYKALSDHHVLLEGTLLKPNMVTPGSESAKVAPEVIAEHTVRALQRTVPAAVPAIVFLSGGQSEEEATRNLNAMNQLKTKKPWSLSFSFGRALQQSTLKTWGGKEENVKKAQEAFLVRCKANSEATLGAYKGDAKLGEGAAESLHVKDYKY | binds
2 | binds | VDAC3 (At5g15090) reconstituted into liposomes (natural protein, A. thaliana, UniProt Q9SMX3 1-274, looked up, voltage-dependent anion channel VDAC3, A. thaliana, At5g15090; also called VDAC3 in liposomes; porin; source: cell-free system (RTS 100 Wheat Germ CECF), separated from the reaction mix via reconstitution into liposomes) MVKGPGLYTEIGKKARDLLYRDYQGDQKFSVTTYSSTGVAITTTGTNKGSLFLGDVATQVKNNNFTADVKVSTDSSLLTTLTFDEPAPGLKVIVQAKLPDHKSGKAEVQYFHDYAGISTSVGFTATPIVNFSGVVGTNGLSLGTDVAYNTESGNFKHFNAGFNFTKDDLTASLILNDKGEKLNASYYQIVSPSTVVGAEISHNFTTKENAITVGTQHALDPLTTVKARVNNAGVANALIQHEWRPKSFFTVSGEVDSKAIDKSAKVGIALALKP | –
